Paper PMC8630017, “Structural insights into proteolytic activation of the human Dispatched1 transporter for Hedgehog morphogen release” (Nature Communications, 2021)

Target: the molecule itself
Experiment: SEC; purified hDisp1^NNN on Superose 6 10/300 GL in 25 mM Tris pH 8.0, 150 mM NaCl, 0.02% GDN

Molecule	binding result
hDisp1^NNN (D572N, D573N, D1051N), N-terminal Flag tag and C-terminal His10 tag, purified (natural protein, human, UniProt Q96F81 1-1524, looked up, human Dispatched1, M1 to L1524, triple mutant in TM4 and TM10; The purified protein is a mix of uncleaved (175 kDa) and Furin-cleaved species (C145 with the His tag; N35 and N30 with the Flag tag); source: HEK293F, transiently transfected, purified (anti-Flag resin, Ni-NTA, SEC on Superose 6) in GDN; not shown: Flag, N-terminal, kept; His10, C-terminal, kept) MAMSNGNNDFVVLSNSSIATSAANPSPLTPCDGDHAAQQLTPKEATRTKVSPNGCLQLNGTVKSSFLPLDNQRMPQMLPQCCHPCPYHHPLTSHSSHQECHPEAGPAAPSALASCCMQPHSEYSASLCPNHSPVYQTTCCLQPSPSFCLHHPWPDHFQHQPVQQHIANIRPSRPFKLPKSYAALIADWPVVVLGMCTMFIVVCALVGVLVPELPDFSDPLLGFEPRGTAIGQRLVTWNNMVKNTGYKATLANYPFKYADEQAKSHRDDRWSDDHYEREKREVDWNFHKDSFFCDVPSDRYSRVVFTSSGGETLWNLPAIKSMCNVDNSRIRSHPQFGDLCQRTTAASCCPSWTLGNYIAILNNRSSCQKIVERDVSHTLKLLRTCAKHYQNGTLGPDCWDMAARRKDQLKCTNVPRKCTKYNAVYQILHYLVDKDFMTPKTADYATPALKYSMLFSPTEKGESMMNIYLDNFENWNSSDGVTTITGIEFGIKHSLFQDYLLMDTVYPAIAIVIVLLVMCVYTKSMFITLMTMFAIISSLIVSYFLYRVVFHFEFFPFMNLTALIILVGIGANNAFVLCDVWNYTKFDKPHAETSETVSITLQHAALSMFVTSFTTAAAFYANYVSNITAIRCFGVYAGTAILVNYVLMVTWLPAVVVLHERYLLNIFTCFKKPQQQIYDNKSCWTVACQKCHKVLFAISEASRIFFEKVLPCIVIKFRYLWLFWFLALTVGGAYIVCINPKMKLPSLELSEFQVFRSSHPFERYDAEYKKLFMFERVHHGEELHMPITVIWGVSPEDNGNPLNPKSKGKLTLDSSFNIASPASQAWILHFCQKLRNQTFFYQTDEQDFTSCFIETFKQWMENQDCDEPALYPCCSHWSFPYKQEIFELCIKRAIMELERSTGYHLDSKTPGPRFDINDTIRAVVLEFQSTYLFTLAYEKMHQFYKEVDSWISSELSSAPEGLSNGWFVSNLEFYDLQDSLSDGTLIAMGLSVAVAFSVMLLTTWNIIISLYAIISIAGTIFVTVGSLVLLGWELNVLESVTISVAVGLSVNFAVHYGVAYRLAPDPDREGKVIFSLSRVGSAMAMAALTTFVAGAMMMPSTVLAYTQLGTFMMLIMCISWAFATFFFQCMCRCLGPQGTCGQIPLPKKLQCSAFSHALSTSPSDKGQSKTHTINAYHLDPRGPKSELEHEFYELEPLASHSCTAPEKTTYEETHICSEFFNSQAKNLGMPVHAAYNSELSKSTESDAGSALLQPPLEQHTVCHFFSLNQRCSCPDAYKHLNYGPHSCQQMGDCLCHQCSPTTSSFVQIQNGVAPLKATHQAVEGFVHPITHIHHCPCLQGRVKPAGMQNSLPRNFFLHPVQHIQAQEKIGKTNVHSLQRSIEEHLPKMAEPSSFVCRSTGSLLKTCCDPENKQRELCKNRDVSNLESSGGTENKAGGKVELSLSQTDASVNSEHFNQNEPKVLFNHLMGEAGCRSCPNNSQSCGRIVRVKCNSVDCQMPNMEANVPAVLTHSELSGESLLIKTL	binds

target: wild-type human Dispatched1 (hDisp1), N-terminal Flag tag and C-terminal Twin-Strep tag (human) (UniProt Q96F81); experiment: not given

Scube2-dependent Shh-NL release from HEK293T cells after 6 h, against WT Shh-NL (fold reduction)	Scube2-dependent Shh-NL release from HEK293T cells after 6 h, against WT Shh-NL (surface localisation of this mutant reduced just below 50%) (fold reduction)	Molecule
> 2	–	NanoLuc-tagged human Shh, mutant E71A (from UniProt Q15465 24-462) (ligand)
> 2	–	NanoLuc-tagged human Shh, mutant K74A (from UniProt Q15465 24-462) (ligand)
> 2	–	NanoLuc-tagged human Shh, mutant L56A (from UniProt Q15465 24-462) (ligand)
> 2	–	NanoLuc-tagged human Shh, mutant L56K (from UniProt Q15465 24-462) (ligand)
> 2	–	NanoLuc-tagged human Shh, mutant N50A (from UniProt Q15465 24-462) (ligand)
–	> 2	NanoLuc-tagged human Shh, mutant N81A (from UniProt Q15465 24-462) (ligand)
> 2	–	NanoLuc-tagged human Shh, mutant V51E (from UniProt Q15465 24-462) (ligand)
> 2	–	NanoLuc-tagged human Shh, mutant Y80A (from UniProt Q15465 24-462) (ligand)
